Assay results published in patent US20200332015A1 (NAMAB THERAPEUTICS, published 2020).

Experiments:
[1] = molecular target: human PDL1-Fc chimeric protein (human, UniProt Q9NZQ7 19-238, limits assumed); assay: SPR T200, antigen-Fc captured, molecule as analyte
Protocol: (§1) Affinity to PDL1 of the different species was determined by SPR measurements using a Biacore T200 device (GE Healthcare). An antibody specific for the Fc region of human IgGs was immobilized on a sensor chip (CM5 sensor chip, GE Healthcare) by amine-coupling. For all formats, with the exception of the Fc containing Morrison formats, PDL1-Fc chimeric protein from different species were captured by the immobilized antibody. Three-fold serial dilutions of the molecules specific for PDL1 (0.12-90 nM) were injected into the flow cells for three minutes and dissociation was monitored for 10 minutes. After each injection cycle, surfaces were regenerated with one injection of a 3 M MgCl₂ solution. The apparent dissociation (kd) and association (kₐ) rate constants and the apparent dissociation equilibrium constant (KD) were calculated using one-to-one Langmuir binding model. Affinity to CD137 of the different species was determined using the identical setup as for PDL1 with the exception that CD137-Fc chimeric proteins from different species were captured by the immobilized antibody.

[2] = molecular target: T1, mouse Fc-tagged mouse CD137 (R&D Systems, cat. 937-4B-050) (mouse, UniProt P20334 24-187); assay: SPR T200, antigen-Fc captured, molecule as analyte
T1 construct: also called mouse CD137-Fc chimeric protein
T1 sequence (looked up): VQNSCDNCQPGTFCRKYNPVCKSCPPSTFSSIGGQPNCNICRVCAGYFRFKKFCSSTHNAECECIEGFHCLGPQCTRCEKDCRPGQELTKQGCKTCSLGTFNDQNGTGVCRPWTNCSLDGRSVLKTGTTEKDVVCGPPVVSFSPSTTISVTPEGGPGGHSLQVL
Protocol: as §1

[3] = molecular target: T2, Fc tagged human CD137 (R&D Systems, cat. 838-4B-100) (human, UniProt Q07011 24-186); assay: SPR T200, antigen-Fc captured, molecule as analyte
T2 construct: also called CD137 Fc chimera; human CD137-Fc chimeric protein
Protocol: as §1

[4] = molecular target: T3, human PDL1 extracellular domain (human, UniProt Q9NZQ7 19-238); assay: SPR T200, Morrison format captured, ECD analyte
T3 construct: extracellular domain; Analyte for the Fc containing Morrison formats
Protocol: as §1
The Fc containing formats were directly captured by the antibody specific for the Fc region of human IgGs. Two-fold serial dilutions of PDL1 extracellular domain or CD137 extracellular domain ranging from 90 to 0.35 nM were tested for binding to the IgG captured on the biosensor chip. After each injection cycle, surfaces were regenerated with one injection of a 3 M MgCl2 solution.

[5] = molecular target: T4, human CD137 expressed on Jurkat cells (human, UniProt Q07011 24-255); assay: cell-based or functional assay
[6] = molecular target: T4, human CD137 expressed on Jurkat cells; assay: cell-based or functional assay; remark: listed apart in the source
[7] = molecular target: T4, human CD137 expressed on Jurkat cells; assay: cell-based or functional assay; remark: listed apart in the source
[8] = molecular target: cynomolgus PDL1-Fc chimeric protein (cynomolgus, UniProt G7PSE7 19-238); assay: SPR T200, antigen-Fc captured, molecule as analyte
cynomolgus PDL1-Fc chimeric protein, sequence (G7PSE7 entry or part of it mutant): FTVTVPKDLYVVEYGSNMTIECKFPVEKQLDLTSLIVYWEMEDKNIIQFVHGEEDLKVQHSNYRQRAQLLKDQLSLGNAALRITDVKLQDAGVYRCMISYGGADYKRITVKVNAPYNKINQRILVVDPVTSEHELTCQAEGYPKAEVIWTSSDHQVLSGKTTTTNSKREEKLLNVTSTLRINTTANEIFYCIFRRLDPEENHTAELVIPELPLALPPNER
Protocol: as §1

B1: PRO1134 (38-02-A04 sc01 scDb-i/33_03_G02 sc07 GL VH3 scDb-o) (bispecific antibody)
chain: DIQMTQSPSSLSASVGDAVTITCQASQSINDYLAWYQQKPGKSPKLLIYKASTLASGVPSRFSGSGSGTDFTLTISSLQPEDFATYYCQQGYIITDIDNVFGTGTKVTVLGGGGGSQVQLQESGPGLVKPSETLSLTCKVSGFSFSNSYWICWIRQPPGKGLEWIGCTFVGSSDSTYYANWAKGRVTISVDSSKNQFSLKLSSVTAADTAVYYCARHPSDAVYGYANNLWGQGTLVTVSSGGGGSGGGGSGGGGSGGGGSIQMTQSPSSLSASVGDRVTITCQASQSINNVLAWYQQKPGKAPKLLIYRASTLASGVPSRFSGSGSGTDFTLTISSLQPEDFATYYCQSSYGNYGDFGTGTKVTVLGGGGGSEVQLVESGGGLVQPGGSLRLSCAASGFSFSSGYDMCWVRQAPGKGLEWVGCVVAGSVDITYYASWAKGRFTISRDNSKNTVYLQMNSLRAEDTATYYCARKDAYSDAFNLWGPGTLVTVSS
notes: scDb
- Kd [1]: 0.028 nM
- koff [1]: 7.6e-05 s⁻¹
- kon [1]: 2.8e+06 M⁻¹ s⁻¹
- Kd [2]: 420 nM
- koff [2]: 0.19 s⁻¹
- kon [2]: 450000 M⁻¹ s⁻¹
- Kd [3]: 3.4 nM
- koff [3]: 0.00084 s⁻¹
- kon [3]: 250000 M⁻¹ s⁻¹

B2: PRO1062 (33-03-G02 sc01 IgG1 HC with 38_27_C05 sc01 scFv, PDL1/CD137(scFv) silent Morrison) (bispecific antibody)
light: DIQMTQSPSSLSASVGDRVTITCQASQSINDYLAWYQQKPGKAPKLLIYKASTLASGVPSRFSGSGSGTDFTLTISSLQPEDFATYYCQQGYIITDIDNVFGTGTKVTVLGTVAAPSVFIFPPSDEQLKSGTASVVCLLNNFYPREAKVQWKVDNALQSGNSQESVTEQDSKDSTYSLSSTLTLSKADYEKHKVYACEVTHQGLSSPVTKSFNRGEC
heavy: QVQLQESGPGLVKPSETLSLTCKVSGFSFSSGYDMCWIRQPPGKGLEWIGCVVAGSVDITYYASWAKGRVTISVDSSKNQFSLKLSSVTAADTAVYYCARKDAYSDAFNLWGQGTLVTVSSASTKGPSVFPLAPSSKSTSGGTAALGCLVKDYFPEPVTVSWNSGALTSGVHTFPAVLQSSGLYSLSSVVTVPSSSLGTQTYICNVNHKPSNTKVDKRVEPKSCDKTHTCPPCPAPEAAGGPSVFLFPPKPKDTLMISRTPEVTCVVVDVSHEDPEVKFNWYVDGVEVHNAKTKPREEQYNSTYRVVSVLTVLHQDWLNGKEYKCKVSNKALGAPIEKTISKAKGQPREPQVYTLPPSREEMTKNQVSLTCLVKGFYPSDIAVEWESNGQPENNYKTTPPVLDSDGSFFLYSKLTVDKSRWQQGNVFSCSVMHEALHNHYTQKSLSLSPGKGGGGSGGGGSIQMTQSPSSLSASVGDRVTITCQASQSINNVLAWYQQKPGKAPKLLIYRASTLASGVPSRFSGSGSGTDFTLTISSLQPEDFATYYCQSSYGNYGDFGTGTKVTVLGGGGGSGGGGSGGGGSGGGGSQVQLQESGPGLVKPSETLSLTCKVSGFSFSNSYWICWIRQPPGKGLEWIGCTFVGSSDSTYYANWAKGRVTISVDSSKNQFSLKLSSVTAADTAVYYCARHPSDAVYGYANNLWGQGTLVTVSS
notes: also called PR01062; Morrison-H
- Kd [4]: 0.038 nM
- koff [4]: 5e-05 s⁻¹
- kon [4]: 1.3e+06 M⁻¹ s⁻¹

B3: PRO1125 (38-02-A04 scDb-i/33_03_G02 sc02 IF scDb-o) (bispecific antibody)
chain: DIQMTQSPSSLSASVGDRVTITCQASQSINDYLAWYQQKPGKSPKLLIYKASTLASGVPSRFSGSGSGTDFTLTISSLQPEDFATYYCQQGYIITDIDNVFGTGTKVTVLGGGGGSQVQLQESGPGLVKPSETLSLTCKVSGFSFSNSYWICWIRQPPGKGLEWIGCTFVGSSDSTYYANWAKGRVTISVDSSKNQFSLKLSSVTAADTAVYYCARHPSDAVYGYANNLWGQGTLVTVSSGGGGSGGGGSGGGGSGGGGSIQMTQSPSSLSASVGDRVTITCQASQSINNVLAWYQQKPGKAPKLLIYRASTLASGVPSRFSGSGSGTDFTLTISSLQPEDFATYYCQSSYGNYGDFGTGTKVTVLGGGGGSQVQLQESGPGLVKPSETLSLTCKVSGFSFSSGYDMCWVRQPPGKGLEWIACVVAGSVDITYYASWAKGRVTISVDSSKNQFSLKLSSVTAADTAVYFCARKDAYSDAFNLWGQGTLVTVSS
notes: scDb
- Kd [1]: 0.067 nM
- koff [1]: 0.00011 s⁻¹
- kon [1]: 1.7e+06 M⁻¹ s⁻¹
- Kd [2]: 510 nM
- koff [2]: 0.27 s⁻¹
- kon [2]: 540000 M⁻¹ s⁻¹
- Kd [3]: 3.7 nM
- koff [3]: 0.00075 s⁻¹
- kon [3]: 200000 M⁻¹ s⁻¹

B4: PRO966 (= PRO1052) (38_27_C05 sc01 scDb-i/33-03-G02 sc01 scDb-o/19-01-H04-sc03 scFv) (other)
chain: DIQMTQSPSSLSASVGDRVTITCQASQSINDYLAWYQQKPGKAPKLLIYKASTLASGVPSRFSGSGSGTDFTLTISSLQPEDFATYYCQQGYIITDIDNVFGTGTKVTVLGGGGGSQVQLQESGPGLVKPSETLSLTCKVSGFSFNNDYDMCWIRQPPGKGLEWIGCIDTGDGSTYYASWAKGRVTISVDSSKNQFSLKLSSVTAADTAVYYCAREAASSSGYGMGYFDLWGQGTLVTVSSGGGGSGGGGSGGGGSGGGGSIQMTQSPSSLSASVGDRVTITCQSSQSVYDNNWLAWYQQKPGKAPKLLIYRASNLASGVPSRFSGSGSGTDFTLTISSLQPEDFATYYCQGTYLSSNWYWAFGTGTKVTVLGGGGGSQVQLQESGPGLVKPSETLSLTCKVSGFSFSSGYDMCWIRQPPGKGLEWIGCVVAGSVDITYYASWAKGRVTISVDSSKNQFSLKLSSVTAADTAVYYCARKDAYSDAFNLWGQGTLVTVSSGGGGSGGGGSIQMTQSPSSLSASVGDRVTITCQSSESVYSNNQLSWYQQKPGQPPKLLIYDASDLASGVPSRFSGSGSGTDFTLTISSLQPEDFATYYCAGGFSSSSDTAFGGGTKLTVLGGGGGSGGGGSGGGGSGGGGSEVQLVESGGGLVQPGGSLRLSCAASGFSLSSNAMGWVRQAPGKGLEYIGIISVGGFTYYASWAKGRFTISRDNSKNTVYLQMNSLRAEDTATYFCARDRHGGDSSGAFYLWGQGTLVTVSS
notes: Trispecific scDb-scFv
- Kd [1]: 0.083 nM
- koff [1]: 0.00014 s⁻¹
- kon [1]: 1.6e+06 M⁻¹ s⁻¹
- Kd [3]: 2.2 nM
- koff [3]: 0.0022 s⁻¹
- kon [3]: 1e+06 M⁻¹ s⁻¹

B5: PRO1058 (38_27_C05 scDb-i/33-03-G02 sc01 scDb-o/mxr HSA (23-13-A01-sc03, sk17sh4)) (other)
chain: DIQMTQSPSSLSASVGDRVTITCQASQSINDYLAWYQQKPGKAPKLLIYKASTLASGVPSRFSGSGSGTDFTLTISSLQPEDFATYYCQQGYIITDIDNVFGTGTKVTVLGGGGGSQVQLQESGPGLVKPSETLSLTCKVSGFSFNNDYDMCWIRQPPGKGLEWIGCIDTGDGSTYYASWAKGRVTISVDSSKNQFSLKLSSVTAADTAVYYCAREAASSSGYGMGYFDLWGQGTLVTVSSGGGGSGGGGSGGGGSGGGGSIQMTQSPSSLSASVGDRVTITCQSSQSVYDNNWLAWYQQKPGKAPKLLIYRASNLASGVPSRFSGSGSGTDFTLTISSLQPEDFATYYCQGTYLSSNWYWAFGTGTKVTVLGGGGGSQVQLQESGPGLVKPSETLSLTCKVSGFSFSSGYDMCWIRQPPGKGLEWIGCVVAGSVDITYYASWAKGRVTISVDSSKNQFSLKLSSVTAADTAVYYCARKDAYSDAFNLWGQGTLVTVSSGGGGSGGGGSVVMTQSPSSLSASVGDRVTITCQASQIISSRSAWYQQKPGQPPKLLIYQASKLASGVPSRFSGSGSGTDFTLTISSLQPEDFATYYCQCTYIDSNFGAFGGGTKLTVLGGGGGSGGGGSGGGGSGGGGSEVQLVESGGGLVQPGGSLRLSCAASGFSFSSSYWICWVRQAPGKGLEWVGCVFTGDGTTYYASWAKGRFTISRDNSKNTVYLQMNSLRAEDTATYFCARPVSVYYYGMDLWGQGTLVTVSS
notes: Trispecific scDb-scFv; also called PR01058
- EC50 NFkB-luciferase, CHO-PDL1 cells, 24 h, + HBA (so in the source) [5]: 0.121 µg/mL
- Top of curve fit, NFkB-luciferase, CHO-PDL1 cells, 24 h, + HBA (so in the source) [5]: 20.5
- Kd [1]: 0.16 nM
- koff [1]: 0.00019 s⁻¹
- kon [1]: 1.2e+06 M⁻¹ s⁻¹
- Kd [3]: 1.2 nM
- koff [3]: 0.0021 s⁻¹
- kon [3]: 1.7e+06 M⁻¹ s⁻¹
- EC50 NFkB-luciferase, CHO-PDL1 cells, 6 h, + HSA [6]: 0.0709 µg/mL
- Top of curve fit, NFkB-luciferase, CHO-PDL1 cells, 6 h, + HSA [6]: 40.1
- max. activation, NF-kB reporter gene, CHO-PD-L1, 24h [7]: 36.2%
- rel. IC50 (urelumab/test), NF-kB reporter gene, CHO-PD-L1, 24h [7]: 0.64 ratio

B6: PRO1013 (37-20-B03 CDR, VH1, scFv) (scFv)
scFv: DIQMTQSPSSLSASVGDRVTITCQASQSIGTYLAWYQQKPGKAPKLLIYRAFILASGVPSRFSGSGSGTDFTLTISSLQPEDFATYYCQSNFYSDSTTIGPNAFGTGTKVTVLGGGGGSGGGGSGGGGSGGGGSQVQLVQSGAEVKKPGASVKVSCKASGFSFNSDYWIYWVRQAPGQGLEWMGSIYGGSSGNTQYASWAQGRVTMTRDTSISTAYMELSSLRSEDTAVYYCARGYVDYGGATDLWGQGTLVTVSS
notes: its row bears no clone label
- Kd [1]: 0.045 nM
- koff [1]: 0.00027 s⁻¹
- kon [1]: 6e+06 M⁻¹ s⁻¹
- Kd [8]: 0.053 nM
- koff [8]: 0.00032 s⁻¹
- kon [8]: 5.9e+06 M⁻¹ s⁻¹
